In the supplement of paper PMC10567573 one finds protein stability index data, which are given here for 72 sequences.

± gives the standard deviation.

This series is described as follows: protein stability index of a GFP-peptide fusion (GPS, HEK-293T) (PSI 1-6); higher = more stable.
[1] abbreviates: treatment: DMSO, c terminus: a fixed tail appended.
[2] abbreviates: treatment: MLN4924 1 uM, 8 h, c terminus: a fixed tail appended.
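Note: 24-mer peptide tiles fused after GFP, lentivirally expressed, FACS-sorted into six equal bins by GFP/DsRed ratio, decoded by Illumina sequencing, PSI is the read-weighted mean bin number.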

In the case of IGMHREMQVNPISKRMGPMTVVRM [RHOBTB1], the protein stability index was 2.39 ± 0.44 under setting [1] and 2.39 ± 0.32 under setting [2].

On to IIANTMAFQNDVYEWARDHRAHHK [SCD], for which the protein stability index reads like this: under setting [1], 2.52 ± 0.17; under setting [2], 2.86 ± 0.27. The like results for IKPAPARAPACSPEAAAAQLRATA [FCHO1] were, in that order, 3.53 ± 0.17 and 3.98 ± 0.13. For IKSHSSLPPNNSYADFERFSKVLE [DAPK3] the same measures were 2.81 ± 0.22 and 2.96 ± 0.39. The like results for ILAAACESETRKAAKRMRLEIYQS [NOL4L] were, in that order, 2.47 ± 0.24 and 2.54 ± 0.05. On to ILAHLTGTEFMQDPDEEHLKKSSQ [PDLIM7], for which the protein stability index under setting [1] amounted to 3.9 ± 0.13 and the protein stability index under setting [2] came out at 4.16 ± 0.25. For ILDLLVLEQFLSILPKELQGWVRE [ZSCAN9] the same measures were 2.38 ± 0.45 and 2.19 ± 0.39. Take ILDQTTSEDAVGGATLGQTTSEEA [HDAC6]: the protein stability index runs as follows: under setting [1], 5.42 ± 0.065; under setting [2], 5.5 ± 0.15. For ILLDPILMFFIMAAMLSMVKYNSC [POMT2] the same measures were 3.27 ± 0.18 and 3.2 ± 0.05. ILTIICYLGLPRLEFYRYYQQLKL [SLC29A1] gave a protein stability index under setting [1] of 3.31 ± 0.33 and a protein stability index under setting [2] of 3.08 ± 0.56. For IMALVAAILLLVIIILIVMKYRT [VAMP4], the protein stability index reads like this: (treatment: DMSO, c terminus: native) 3.07 ± 0.33; (treatment: MLN4924 1 uM, 8 h, c terminus: native) 3.16 ± 0.07. INRADYCPECYPDNPANRSLVLPW [TOR1AIP2] registered a protein stability index under setting [1] of 2.29 ± 0.33 and a protein stability index under setting [2] of 2.76 ± 0.55.

For IPMHIDHDRNMDWVSTQLQATCNV [FADS1], the protein stability index came out at 3 ± 0.28 under setting [1] and 3.24 ± 0.27 under setting [2]. The like results for IPPKSVNPTCMCCQATSSTACHIQ [FAM219A] were, in that order, 3.7 ± 0.17 and 3.82 ± 0.26. For IQGQNKEMLAAACQMFLGKTEAEI [FLOT1] the same measures were 3.49 ± 0.15 and 3.42 ± 0.33.

Take IQNAHKNSTGSGRGKKLMVLTEPI [TPRG1]: the protein stability index was determined as 3.89 ± 0.24 under setting [1] and 3.66 ± 0.28 under setting [2]. The like results for IQPSSEGLGPTSEPFPSSDDSPRS [SPAG8] were, in that order, 5.41 ± 0.21 and 5.35 ± 0.15. The like results for IQSLTCEVDGLRGTNEALLRQLRE [PRPH] were, in that order, 3.74 ± 0.4 and 3.96 ± 0.24. Regarding IQVEDIRIRAILSTYRKRTPVMEG [LOXL2], the protein stability index worked out at 2.13 ± 0.48 under setting [1] and 2.16 ± 0.35 under setting [2]. The like results for IQVLPKLSSSIIHEIDSILGNKPY [KCNAB2] were, in that order, 1.98 ± 0.27 and 2.28 ± 0.27. In the case of IRVRGQRASRLQAPVLVAAPHSTF [LPCAT4], the protein stability index runs as follows: under setting [1], 2.6 ± 0.17; under setting [2], 2.73 ± 0.22. For ISPWNLPLYLLTWKIAPAMAAGNT [ALDH8A1] the same measures were 3.06 ± 0.53 and 3.05 ± 0.62.

Regarding ITKAFHVRKANRIKECLSKGTFSD [RHOBTB1], the protein stability index reads like this: under setting [1], 2.7 ± 0.25; under setting [2], 2.81 ± 0.51. For ITLDGGVLVHVQKWDGKSTTIKRK [FABP4], the protein stability index is, setting by setting: under setting [1], 2.46 ± 0.38; under setting [2], 3.06 ± 0.1. ITLKYPHYFPVMKKCCIPETRRRM [NLN]: the protein stability index by setting is: under setting [1], 2.1 ± 0.27; under setting [2], 1.97 ± 0.37. Take ITWIAGAVTKDFKLTDKHETVVSY [ACSBG2]: the protein stability index runs as follows: under setting [1], 2.3 ± 0.25; under setting [2], 2.03 ± 0.33. For ITWNRVVLLHGPPGTGKTSLCKAL [TRIP13] the same measures were 2.32 ± 0.58 and 2.13 ± 0.2. The like results for IYDLNIPAFVKFAYVAEREDELSL [NCK2] were, in that order, 2.25 ± 0.39 and 2.51 ± 0.2.

In the case of IYLINQKWFGRKRTLSAFLCLGGL [SLC22A15], the protein stability index under setting [1] is 3.15 ± 0.26 and the protein stability index under setting [2] worked out at 3.01 ± 0.56. The sequence IYVVGGFDGTAHLSSVEAYNIRTD [KLHL12] registered a protein stability index under setting [1] of 3.08 ± 0.28. As to KAFLTKTMLIVHHRTHTGERPYGC [ZNF649], the protein stability index runs as follows: under setting [1], 2.45 ± 0.3; under setting [2], 2.03 ± 0.23. The like results for KAILEQNFRDLVRDLEKQKEEVRA [TRIM29] were, in that order, 4.43 ± 0.31 and 4.48 ± 0.24. The like results for KALAIILHLLYLLEKVECTPSQEH [FEM1A] were, in that order, 1.96 ± 0.35 and 1.99 ± 0.13.

As to KAQALRDNSTMGYMMAKKHLEINP [HSP90AB1], the protein stability index reads like this: under setting [1], 3.39 ± 0.14; under setting [2], 3.5 ± 0.23. The like results for KCDSLKEECIPEHMVRESKIMEAE [FAN1] were, in that order, 5.2 ± 0.39 and 5 ± 0.22. Take KCPWMEGGEMSPQVETSIEGTIPF [INTS4]: the protein stability index under setting [1] stood at 4.08 ± 0.27 and the protein stability index under setting [2] came out at 4.03 ± 0.2.

Sequence KCVTMSSAVVQLYAADRNCMWSKK [WASL] yielded a protein stability index under setting [1] of 2.87 ± 0.18 and a protein stability index under setting [2] of 2.88 ± 0.29. The like results for KDKEYAEIIRKQVSATKAEAEKDG [UBE2R2] were, in that order, 5.39 ± 0.29 and 5.38 ± 0.21. KEISRKRRSIRYGREVELKPYIAA [PTPRD]: the protein stability index runs as follows: under setting [1], 3.27 ± 0.17; under setting [2], 3.65 ± 0.44. The like results for KENSHQVKEELSQKFDTLYAILDE [TRIM63] were, in that order, 4.77 ± 0.27 and 4.57 ± 0.18. For KFKESFAEMNRGSNEWKTVVGGAM [COX4I1] the same measures were 3 ± 0.13 and 3.2 ± 0.29. With KFPPEEELQREWLGNREALIQFLE [CPN1], the protein stability index is 3.69 ± 0.18 under setting [1] and 3.8 ± 0.18 under setting [2]. KGEFKDEEETVTTKHIHITQATET [CLINT1]: the protein stability index by setting is: under setting [1], 5.42 ± 0.059; under setting [2], 5.4 ± 0.097. For KGHERTVQYLQHLGTENLHLIFSY [VPS39] the same measures were 2.39 ± 0.46 and 2.59 ± 0.67. For the sequence KHGSLNRYHNSHPLRERARKLSQG [YJU2B], the protein stability index worked out at 3.73 ± 0.19 under setting [1] and 3.84 ± 0.12 under setting [2]. The like results for KHLTARVLCLIVLPLALYTATFAV [POMT2] were, in that order, 3.38 ± 0.42 and 3.15 ± 0.58. As to KIDDLMQEITEQQDIAQEISEAFS [CHMP4C], the protein stability index under setting [1] worked out at 4.75 ± 0.35 and the protein stability index under setting [2] is 4.67 ± 0.28.

In the case of KIGFEIGIENEEDTSKQKKMETMY [ZNF449], the protein stability index reads like this: under setting [1], 4.08 ± 0.29; under setting [2], 4.07 ± 0.22. The like results for KINKIRWLPQQNAAYFLLSTNDKT [PPP2R2B] were, in that order, 2.69 ± 0.26 and 2.54 ± 0.039. In the case of KIRPDSSRPELLQPLNFVRFYLPL [GLT8D2], the protein stability index runs as follows: under setting [1], 2.19 ± 0.42; under setting [2], 2.17 ± 0.18. Consider KKGSNGYGFYLRAGSEQKGQIIKD [PDZK1], for which the protein stability index is 3.19 ± 0.44 under setting [1] and 3.33 ± 0.27 under setting [2]. On to KKKNTNKQEMGTYLRFIVSRMKER [ZMYND11], for which the protein stability index was 2.47 ± 0.16 under setting [1] and 2.92 ± 0.25 under setting [2]. The like results for KLATEAGVEVIVRISHTLYDLDKI [CRY1] were, in that order, 2.97 ± 0.32 and 3.13 ± 0.71.

As to KLEESKQLLKNNEKLITWLNKELN [SASS6], the protein stability index worked out at 2.24 ± 0.36 under setting [1] and 1.99 ± 0.73 under setting [2]. The like results for KLFAHSSDLLSEFKKHDADKVGLI [PPEF2] were, in that order, 2.63 ± 0.3 and 2.68 ± 0.38.

For the sequence KLPPYLIFCIKRFTKNNFFVEKNP [USP39], the protein stability index worked out at 3.02 ± 0.12 under setting [1] and 2.75 ± 0.4 under setting [2]. For KMELLILETQAQVCQALAQVDGGA [CPOX] the same measures were 2.14 ± 0.52 and 2.18 ± 0.52.

On to KMTDLLSRRLQLGSEENGRYFSLS [PCDHGC5], for which the protein stability index was 2.41 ± 0.16 under setting [1] and 2.47 ± 0.14 under setting [2]. As for KMVPRYDLNRHLDEMCANNDFVQV [FAN1], the protein stability index was found to be 2.81 ± 0.15 under setting [1] and 2.8 ± 0.46 under setting [2]. The like results for KPDGTVEQIGHILVSWLPRLNAYR [NET1] were, in that order, 2.21 ± 0.52 and 2.1 ± 0.1. For KPILLHQVEALAAAGVDHVILAVS [GMPPB], the protein stability index came out at 2.55 ± 0.48 under setting [1] and 2.61 ± 0.5 under setting [2]. Regarding KQNGRVAKVKGHRSQKHKERIRLL [C18orf25], the protein stability index is 3.9 ± 0.28 under setting [1] and 3.97 ± 0.29 under setting [2]. The like results for KQSLVVAVQDHGQPPLSATVTLTV [PCDHGA10] were, in that order, 2.72 ± 0.59 and 2.68 ± 0.45.

For the sequence KRESFLKYKCLLQQLYYTEADYED [IQUB], the protein stability index is 2.2 ± 0.31 under setting [1] and 2.49 ± 0.3 under setting [2].

As for KRFVAMKVVKSAQHYTETALDEIK [SRPK2], the protein stability index under setting [1] was determined as 2.97 ± 0.51 and the protein stability index under setting [2] worked out at 2.92 ± 0.38. In the case of KSYPSSELRNMCDEHIASEEPAEK [CLCN6], the protein stability index is 5.53 ± 0.2 under setting [1] and 5.44 ± 0.27 under setting [2]. For KTHTGEKPHRCHNCGKSFSRLTAL [ZNF449] the same measures were 2.47 ± 0.12 and 2.67 ± 0.45. The like results for KTTLGWKYEQAFESSQKYKEGKYI [YPEL3] were, in that order, 2.37 ± 0.3 and 2.63 ± 0.17.

Regarding KVGKLAATAVGGGFFLLQLANHTG [FUNDC2], the protein stability index reads like this: under setting [1], 2.38 ± 0.59; under setting [2], 2.46 ± 0.87. As to KVPRPDALDNESWGFVHPRLLSVP [RETREG3], the protein stability index under setting [1] came out at 2.91 ± 0.13 and the protein stability index under setting [2] amounted to 2.74 ± 0.081. As to KVVKGHRPELPPVCRARPRACSHL [RIPK4], the protein stability index was determined as 3.19 ± 0.36 under setting [1] and 3.04 ± 0.46 under setting [2].

For the sequence KYDYLMTLHGVVNESTVCLMSYER [TENT5D], the protein stability index is, setting by setting: under setting [1], 2.38 ± 0.34; under setting [2], 2.36 ± 0.22.
